Assay results from article PMC11075132, “A transaminase-mediated aldol reaction and applications in cascades to styryl pyridines” (Catalysis Science & Technology, 2024).

Substrate: NCCc1ccc(O)cc1
Experiment: purified protein
Type: biochemical, Chromobacterium violaceum
Conditions: apparent; transaminase reaction; 0.1 eq. PLP, 1 eq. pyruvate as amine acceptor; substrate 4a taken from context

B1: CvTAm (Chromobacterium violaceum ATCC 12472) (protein)
chain: MQKQRTTSQWRELDAAHHLHPFTDTASLNQAGARVMTRGEGVYLWDSEGNKIIDGMAGLWCVNVGYGRKDFAEAARRQMEELPFYNTFFKTTHPAVVELSSLLAEVTPAGFDRVFYTNSGSESVDTMIRMVRRYWDVQGKPEKKTLIGRWNGYHGSTIGGASLGGMKYMHEQGDLPIPGMAHIEQPWWYKHGKDMTPDEFGVVAARWLEEKILEIGADKVAAFVGEPIQGAGGVIVPPATYWPEIERICRKYDVLLVADEVICGFGRTGEWFGHQHFGFQPDLFTAAKGLSSGYLPIGAVFVGKRVAEGLIAGGDFNHGFTYSGHPVCAAVAHANVAALRDEGIVQRVKDDIGPYMQKRWRETFSRFEHVDDVRGVGMVQAFTLVKNKAKRELFPDFGEIGTLCRDIFFRNNLIMRACGDHIVSAPPLVMTRAEVDEMLAVAERCLEEFEQTLKARGLA
notes: wild type, recombinant in E. coli, purified; homodimer; PLP enzyme; catalytic Lys288
For B1, the Km was 1690 µM and the kcat was 6.04 s⁻¹.
